Measurements reported in the supplement of paper PMC7877785.
± gives the uncertainty stated by the source.

Test: self-splicing fitness, log relative to wild type (ln ratio); higher = more splicing; Tetrahymena group I intron in knt gene, E. coli kanamycin selection, DiMSum; sequences stand for … in CUCUCU…GGAGGGAAAAGUUAUCAGGCAUGCACCUGGUAGCUAGUCUUUAAACCAAUAGAUUGCAUCGGUUUAAAAGGCAAGACCGUCAAAUUGCGGGAAAGGGGUCAACAGCCGUUCAGUACCAAGUCUCAGGGGAAACUUUGAGAUGGCCUUGCAAAGGGUAUGGUAAUAAGCUGACGGACAUGGUCCUAACCACGCAGCCAAGUCCUAAGUCAACAGAUCUUCUGUUGAUAUGGAUGCAGUUCACAGACUAAAUGUCGGUCGGGGAAGAUGUAUUCUUCUCAUAAGAUAUAGUCGGACCUCUCCUUAAUGGGAGCUAGCGGAUGAAGUGAUGCAACACUGGAGCCGCUGGGAACUAAUUUGUAUGCGAAAGUAUAUUGAUUAGUUUUGGAGUACUCGUGGUCG
In short: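 Colonies from six replicate transformations of E. coli BL21(DE3) were pooled and amplicon-sequenced on an Illumina HiSeq 2500. The library placed an intron with all eight P1ex-region nucleotides randomised inside the knt kanamycin-resistance gene on pET-22b(+), and cells grew overnight at 37°C or 30°C on LB agar with or without 25 μg/mL kanamycin (plus 100 μg/mL carbenicillin, 50 μM IPTG, 0.2% rhamnose). Fitness is the DiMSum error-weighted combination of wild-type-normalised replicate fold changes, kanamycin versus none.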

Row | Sequence | self-splicing fitness (ln) (30 °C) | self-splicing fitness (ln) (37 °C)
1 | CGAGAGCAAUAUUACGAGCA | -1.62 ± 0.34 | 
2 | ACUGAGCAAUAUUACGAGCG | -2.44 ± 0.14 | -0.615 ± 0.13
3 | GUGAAGCAAUAUUACGCCAU | -2.07 ± 0.13 | -1.14 ± 0.15
4 | GUCCAGCAAUAUUACGGCAC | -1.17 ± 0.064 | -0.348 ± 0.092
5 | AGUGAGCAAUAUUACGCAGU | -3.01 ± 0.24 | -0.67 ± 0.2
6 | GGUCAGCAAUAUUACGGAGG |  | -2.54 ± 0.36
7 | GGCAAGCAAUAUUACGCGAA | -0.953 ± 0.12 | 0.499 ± 0.13
8 | GAUUAGCAAUAUUACGUGGU | -2.61 ± 0.18 | -2.47 ± 0.2
9 | UCGCAGCAAUAUUACGUCUU | -1 ± 0.11 | -0.165 ± 0.12
10 | CUCGAGCAAUAUUACGAUGG | -1.83 ± 0.083 | -1.61 ± 0.1
11 | CUUAAGCAAUAUUACGGCCU | -2.74 ± 0.25 | -3.1 ± 0.44
12 | CGUCAGCAAUAUUACGAAAG | -0.9 ± 0.073 | 0.129 ± 0.096
13 | UCUCAGCAAUAUUACGCGGC | -4.17 ± 0.42 | -1.86 ± 0.27
14 | CUGUAGCAAUAUUACGGCAA | -3.11 ± 0.39 | 
15 | UAACAGCAAUAUUACGUAUU | -3.38 ± 0.14 | -1.94 ± 0.18
16 | UCUUAGCAAUAUUACGGUCU | -4.42 ± 0.42 | -2.67 ± 0.32
17 | UUCGAGCAAUAUUACGGAGA | -1.63 ± 0.22 | -1.38 ± 0.22
18 | GUUUAGCAAUAUUACGCUUG | -1.18 ± 0.099 | 0.632 ± 0.15
19 | CGUCAGCAAUAUUACGUGGU | -3.59 ± 0.12 | -2.5 ± 0.13
20 | GAUGAGCAAUAUUACGCUAG |  | -1.33 ± 0.39
21 | AAAUAGCAAUAUUACGCUCA | -0.111 ± 0.13 | 0.39 ± 0.16
22 | GAUUAGCAAUAUUACGUCCG | -1.73 ± 0.25 | -2.61 ± 0.41
23 | AUACAGCAAUAUUACGCCGC | -3.8 ± 0.27 | -2.19 ± 0.2
24 | GGCAAGCAAUAUUACGGUUC | -0.000497 ± 0.07 | -0.268 ± 0.1
25 | UGUUAGCAAUAUUACGUCUC | -4.05 ± 0.42 | -2.07 ± 0.31

Row | Sequence | self-splicing fitness (ln) (30 °C) | self-splicing fitness (ln) (37 °C)
26 | GUGCAGCAAUAUUACGAUUC | 0.476 ± 0.074 | -0.403 ± 0.073
27 | GCCAAGCAAUAUUACGCGUC | -1.31 ± 0.068 | -1.71 ± 0.088
28 | UGGUAGCAAUAUUACGUCUA | -0.44 ± 0.096 | 0.358 ± 0.12
29 | AGCAAGCAAUAUUACGGCUU | -3.17 ± 0.18 | -0.891 ± 0.12
30 | AAGUAGCAAUAUUACGGGCC |  | -1.88 ± 0.37
31 | GGCGAGCAAUAUUACGUUUA | -1.4 ± 0.087 | -0.372 ± 0.11
32 | AUGAAGCAAUAUUACGACCA | 0.00939 ± 0.06 | 0.489 ± 0.083
33 | UCUGAGCAAUAUUACGUUAG | -2.36 ± 0.14 | -1.82 ± 0.17
34 | AAAUAGCAAUAUUACGCAAU | -2.44 ± 0.13 | -0.689 ± 0.12
35 | CAGCAGCAAUAUUACGACCA | -1.88 ± 0.19 | -1.22 ± 0.18
36 | GCCAAGCAAUAUUACGCAAA | -1.13 ± 0.11 | -0.448 ± 0.12
37 | GCCCAGCAAUAUUACGCCCA | -0.496 ± 0.15 | -1.1 ± 0.17
38 | UGCAAGCAAUAUUACGCACG | -2.14 ± 0.3 | -0.955 ± 0.13
39 | UAUCAGCAAUAUUACGGAUC | -0.475 ± 0.11 | -0.265 ± 0.13
40 | UACAAGCAAUAUUACGUGUA | -3.33 ± 0.15 | -2.69 ± 0.14
41 | CCAUAGCAAUAUUACGCCUA | -2.85 ± 0.27 | -2.93 ± 0.35
42 | GAAGAGCAAUAUUACGAUUU | -1.31 ± 0.079 | -1.04 ± 0.14
43 | GAACAGCAAUAUUACGUUUC | -4.43 ± 0.14 | -2.53 ± 0.14
44 | ACGAAGCAAUAUUACGAUCA | -1.08 ± 0.12 | -0.536 ± 0.12
45 | CUUUAGCAAUAUUACGGAAU | -1.75 ± 0.23 | -1.73 ± 0.36
46 | UGGGAGCAAUAUUACGCCAU | -3.45 ± 0.33 | -0.288 ± 0.26
47 | UAAAAGCAAUAUUACGAGAC | -2.39 ± 0.28 | -2.29 ± 0.26
48 | UCGGAGCAAUAUUACGUUGU | -3.7 ± 0.22 | -1.93 ± 0.21
49 | CAUGAGCAAUAUUACGUGGC | -3.55 ± 0.25 | -2.46 ± 0.24
50 | AGAUAGCAAUAUUACGUUGU | -2.26 ± 0.08 | -2.39 ± 0.11

Row | Sequence | self-splicing fitness (ln) (30 °C) | self-splicing fitness (ln) (37 °C)
51 | AAGUAGCAAUAUUACGGCCU | -0.0359 ± 0.073 | -0.35 ± 0.091
52 | UCAAAGCAAUAUUACGAGCG | -0.712 ± 0.088 | -0.172 ± 0.11
53 | GAAGAGCAAUAUUACGGGAG | -3.15 ± 0.19 | -2.19 ± 0.23
54 | CGACAGCAAUAUUACGUCGG | -1.83 ± 0.11 | -1.44 ± 0.15
55 | AGCAAGCAAUAUUACGCCAA | -2.89 ± 0.2 | -1.97 ± 0.14
56 | CCGAAGCAAUAUUACGGAGC | -1.9 ± 0.33 | -2.74 ± 0.44
57 | UUCCAGCAAUAUUACGGGAU | -3.25 ± 0.11 | -3.13 ± 0.19
58 | CGAUAGCAAUAUUACGGACU | -1.28 ± 0.095 | -0.496 ± 0.11
59 | AUUAAGCAAUAUUACGGACG | -1.18 ± 0.12 | -0.721 ± 0.14
60 | GGCGAGCAAUAUUACGGGAU |  | -2.21 ± 0.47
61 | AAUGAGCAAUAUUACGCCUU | -2.11 ± 0.13 | -1.43 ± 0.15
62 | UACCAGCAAUAUUACGCCAG | -0.698 ± 0.08 | -1.13 ± 0.1
63 | CAUGAGCAAUAUUACGAACG | -0.482 ± 0.082 | -0.421 ± 0.088
64 | GGCCAGCAAUAUUACGCGUC | -2.97 ± 0.12 | -1.75 ± 0.15
65 | AGGGAGCAAUAUUACGGGGG | -2.67 ± 0.2 | -3.03 ± 0.37
66 | GCCUAGCAAUAUUACGACUG | -3.25 ± 0.27 | -2.97 ± 0.4
67 | UUCAAGCAAUAUUACGCGGU | -2.91 ± 0.17 | -1.96 ± 0.17
68 | GUUAAGCAAUAUUACGAUGC | -0.546 ± 0.18 | -0.241 ± 0.18
69 | AGUGAGCAAUAUUACGGUCU | -0.639 ± 0.11 | -0.463 ± 0.12
70 | UACGAGCAAUAUUACGUAGC | -3.67 ± 0.46 | -1.01 ± 0.21
71 | UCCAAGCAAUAUUACGUUUU | -4 ± 0.13 | -2.91 ± 0.14
72 | ACCAAGCAAUAUUACGAUGG | -1.76 ± 0.076 | -0.995 ± 0.12
73 | UCGGAGCAAUAUUACGAUUA |  | 0.203 ± 0.28
74 | ACUCAGCAAUAUUACGGUAA | -1.66 ± 0.092 | -0.871 ± 0.081
75 | AACAAGCAAUAUUACGAUCA | -0.766 ± 0.058 | -0.628 ± 0.078

Row | Sequence | self-splicing fitness (ln) (30 °C) | self-splicing fitness (ln) (37 °C)
76 | UAUUAGCAAUAUUACGGCUC | -0.997 ± 0.4 | 0.595 ± 0.44
77 | UAAUAGCAAUAUUACGUCCU | -0.907 ± 0.19 | -0.798 ± 0.23
78 | CCUCAGCAAUAUUACGCUGC | -3.53 ± 0.21 | -1.69 ± 0.24
79 | UCGCAGCAAUAUUACGGUUC | -3.65 ± 0.43 | -1.66 ± 0.3
80 | GCCGAGCAAUAUUACGUUAC | -3.09 ± 0.21 | -2.3 ± 0.19
81 | UACGAGCAAUAUUACGAUGA | -2.05 ± 0.19 | -2.41 ± 0.2
82 | AUACAGCAAUAUUACGGAGU | -1.72 ± 0.085 | -1.72 ± 0.11
83 | CCAGAGCAAUAUUACGCUGC | -2.85 ± 0.27 | -1.28 ± 0.25
84 | CGCCAGCAAUAUUACGCUAA | -2.34 ± 0.15 | -1.29 ± 0.14
85 | CAGUAGCAAUAUUACGGAGG | -1.61 ± 0.094 | -0.514 ± 0.12
86 | CUUAAGCAAUAUUACGGCCG | -0.607 ± 0.093 | -0.38 ± 0.13
87 | CCGAAGCAAUAUUACGGCAU | -4.19 ± 0.31 | -2.92 ± 0.23
88 | GGAUAGCAAUAUUACGUGGU | -2.33 ± 0.14 | -2.09 ± 0.17
89 | AGUGAGCAAUAUUACGCUCU |  | -2.1 ± 0.34
90 | AACCAGCAAUAUUACGUUUU | -2.11 ± 0.057 | -1.27 ± 0.065
91 | CCUGAGCAAUAUUACGCACA | -1.53 ± 0.17 | -1.6 ± 0.35
92 | AUCGAGCAAUAUUACGUAAU | -1.91 ± 0.12 | -1.25 ± 0.13
93 | CCACAGCAAUAUUACGUUUC | -4.16 ± 0.22 | -2.44 ± 0.24
94 | GUAAAGCAAUAUUACGAAUU | -2.11 ± 0.16 | -0.966 ± 0.18
95 | CACCAGCAAUAUUACGAUCA | -2.75 ± 0.15 | -1.43 ± 0.16
96 | GUAGAGCAAUAUUACGGCCU | -0.447 ± 0.11 | -0.0153 ± 0.14
97 | GUGGAGCAAUAUUACGCGAC | -2.22 ± 0.48 | 
98 | GACCAGCAAUAUUACGCCUC | -1.17 ± 0.097 | -0.623 ± 0.11
